Data reported in PMC7704052.

Target: Flag-tagged MxA wildtype (human myxovirus resistance protein A) (human) (UniProt P20591)

In the case of “SiAr126 nucleoprotein (NP), wildtype, from expression plasmid (natural protein)”, the SiAr126 polymerase reconstitution (minigenome firefly luciferase) in 293T cells: inhibition by co-expressed MxA compared with the inactive MxA(T103A) is reported as 90%.
